Here are results for one molecule from paper PMC7708447, “Ultrasensitive antibody-aptamer plasmonic biosensor for malaria biomarker detection in whole blood”.

Data set [1] concerns the target Plasmodium vivax lactate dehydrogenase (PvLDH) (Plasmodium vivax, UniProt Q4PRK9 1-316). In words: antibody-aptamer sandwich plasmon-enhanced fluorescence. Particulars: protein: recombinant; chain copies: 4.
The target of data set [2] is Plasmodium falciparum lactate dehydrogenase (PfLDH) (Plasmodium falciparum, UniProt Q76NM3 1-316). In words: antibody-aptamer sandwich plasmon-enhanced fluorescence; PfLDH captured by anti-PLDH on AuNP array; spiked human blood; 0.1 uM aptamer; sandwich LOD 18 fM (not a Kd); association time constant 45 +/- 15 min; Aptamer step: PBS (10 mM NaCl, 10 mM NaH2PO4, 10 mM Na2HPO4, 1 mM MgCl2, pH 7.1), 0.1 uM Cy5-aptamer, 2 h in the dark; temperature not stated; analyte spiked in human blood. To be noted: protein: recombinant; chain copies: 4; label: 5'-Cy5.

In the case of CTGGGCGGTAGAACCATAGTGACCCAGCCGTCTAC (ssDNA) [malaria 2008s aptamer], the binding result was “no binding” in data set [1] and “binds” in data set [2].
